Measured values from patent US20250179144A1.
Where a chain is given by its changes, count along the chain named. Values belong to the binder of their own block, whether it stands above or below them.

Assays:
[1] = target: full-length human BTN3A1 on transfected cells pre-treated (cross-linked) with anti-BTN3A mAb clone 20.1 (human); test: flow cytometry, FRET (YG 670/30) between TCR tetramer-PE and anti-BTN3A 20.1-AF647 on BTN3A1+ NIH-3T3 cells; with IgG1κ-AF647 the gate holds 0.02, with SAv 0
[2] = target: BTN2A1 ectodomain homodimer, disulfide-linked (C-terminal Cys247, acidic or basic leucine zipper) (human) (UniProt Q7KYR7); test: SPR, soluble TCR over immobilised BTN2A1 homodimer, KD at equilibrium
Chain of BTN2A1 ectodomain homodimer, disulfide-linked (C-terminal Cys247, acidic or basic leucine zipper) (human) (Q7KYR7 29-248, chain 1 of 2): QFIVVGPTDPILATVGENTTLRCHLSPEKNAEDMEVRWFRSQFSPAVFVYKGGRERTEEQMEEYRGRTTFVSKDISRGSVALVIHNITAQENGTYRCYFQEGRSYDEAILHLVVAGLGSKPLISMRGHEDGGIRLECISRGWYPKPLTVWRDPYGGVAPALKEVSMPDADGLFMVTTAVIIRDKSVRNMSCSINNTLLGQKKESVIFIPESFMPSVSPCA
Chain of BTN2A1 ectodomain homodimer, disulfide-linked (C-terminal Cys247, acidic or basic leucine zipper) (human) (Q7KYR7 29-248, chain 2 of 2): as the sequence (Q7KYR7 29-248, chain 1 of 2) above

[3] = target: BTN2A1 (WT) and BTN3A1 (WT) co-expressed on NIH-3T3 cells (human) (UniProt Q7KYR7); test: flow cytometry on NIH-3T3 cells co-transfected with BTN2A1 WT and BTN3A1 WT, zoledronate (100 µM)
Chain of BTN2A1 (WT) and BTN3A1 (WT) co-expressed on NIH-3T3 cells (human) (Q7KYR7 29-527, chain 1 of 2): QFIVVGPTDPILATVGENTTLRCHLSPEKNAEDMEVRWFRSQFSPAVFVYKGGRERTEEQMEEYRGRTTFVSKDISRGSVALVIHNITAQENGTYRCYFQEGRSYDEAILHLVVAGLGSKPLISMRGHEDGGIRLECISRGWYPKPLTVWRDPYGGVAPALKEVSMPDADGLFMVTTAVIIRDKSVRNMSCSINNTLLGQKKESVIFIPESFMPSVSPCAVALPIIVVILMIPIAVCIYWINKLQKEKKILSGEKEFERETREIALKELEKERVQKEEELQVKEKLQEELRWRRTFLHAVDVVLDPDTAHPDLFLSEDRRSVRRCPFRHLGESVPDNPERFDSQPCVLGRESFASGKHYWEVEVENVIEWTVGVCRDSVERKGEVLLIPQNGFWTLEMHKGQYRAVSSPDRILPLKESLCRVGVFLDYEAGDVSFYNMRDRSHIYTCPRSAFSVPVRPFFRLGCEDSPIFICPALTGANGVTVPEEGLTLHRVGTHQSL
Chain of BTN2A1 (WT) and BTN3A1 (WT) co-expressed on NIH-3T3 cells (human) (chain, as listed by the source, chain 2 of 2): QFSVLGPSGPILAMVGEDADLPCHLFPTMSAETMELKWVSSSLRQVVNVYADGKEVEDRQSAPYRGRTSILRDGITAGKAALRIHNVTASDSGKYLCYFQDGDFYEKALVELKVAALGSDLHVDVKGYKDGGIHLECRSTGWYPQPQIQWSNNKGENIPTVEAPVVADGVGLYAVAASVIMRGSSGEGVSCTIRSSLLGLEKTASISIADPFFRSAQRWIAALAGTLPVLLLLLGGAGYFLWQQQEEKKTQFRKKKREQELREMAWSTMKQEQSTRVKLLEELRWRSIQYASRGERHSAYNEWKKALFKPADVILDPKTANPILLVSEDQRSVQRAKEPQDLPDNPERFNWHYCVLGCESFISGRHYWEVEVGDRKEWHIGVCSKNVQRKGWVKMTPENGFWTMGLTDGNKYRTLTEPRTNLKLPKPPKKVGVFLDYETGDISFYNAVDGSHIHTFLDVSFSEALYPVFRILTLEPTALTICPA

[4] = target: BTN2A1 (Ser44-Arg) and BTN3A1 (Glu106-Ala) co-expressed on NIH-3T3 cells (human) (UniProt Q7KYR7); test: flow cytometry on NIH-3T3 cells co-transfected with BTN2A1 Ser44-Arg and BTN3A1 Glu106-Ala, zoledronate (100 µM)
Chain of BTN2A1 (Ser44-Arg) and BTN3A1 (Glu106-Ala) co-expressed on NIH-3T3 cells (human) (Q7KYR7 29-527 S72R limits assumed, chain 1 of 2): as the sequence (Q7KYR7 29-527, chain 1 of 2) above, with S44R counted along it
Chain of BTN2A1 (Ser44-Arg) and BTN3A1 (Glu106-Ala) co-expressed on NIH-3T3 cells (human) (chain, as listed by the source S44R E106A S44R E106A limits assumed, chain 2 of 2): as the sequence (chain, as listed by the source, chain 2 of 2) above, with E106A counted along it

[5] = target: BTN2A1 (WT) and BTN3A1 (Glu106-Ala) co-expressed on NIH-3T3 cells (human) (UniProt Q7KYR7); test: flow cytometry on NIH-3T3 cells co-transfected with BTN2A1 WT and BTN3A1 Glu106-Ala, no zoledronate
Chain of BTN2A1 (WT) and BTN3A1 (Glu106-Ala) co-expressed on NIH-3T3 cells (human) (Q7KYR7 29-527 limits assumed, chain 1 of 2): as the sequence (Q7KYR7 29-527, chain 1 of 2) above
Chain of BTN2A1 (WT) and BTN3A1 (Glu106-Ala) co-expressed on NIH-3T3 cells (human) (chain, as listed by the source E106A E106A limits assumed, chain 2 of 2): as the sequence (chain, as listed by the source, chain 2 of 2) above, with E106A counted along it

[6] = target: BTN2A1-BTN3A1-zipper ectodomain complex (construct #1, long linker version with high affinity zippers) (human); test: SPR, equilibrium; BTN2A1-BTN3A1 ectodomain complex immobilised, soluble TCR injected
[7] = target: full-length human BTN3A1 on transfected cells (human) (UniProt O00481); test: flow cytometry, γδTCR tetramer-PE on BTN3A1-transfected NIH-3T3 cells treated with isotype IgG1κ (black number); SAv control 25
Chain of full-length human BTN3A1 on transfected cells (human) (O00481 30-513): as the sequence (chain, as listed by the source, chain 2 of 2) above

[8] = target: BTN2A1 (Ser44-Arg) and BTN3A1 (WT) co-expressed on NIH-3T3 cells (human) (UniProt Q7KYR7); test: flow cytometry on NIH-3T3 cells co-transfected with BTN2A1 Ser44-Arg and BTN3A1 WT, zoledronate (100 µM)
Chain of BTN2A1 (Ser44-Arg) and BTN3A1 (WT) co-expressed on NIH-3T3 cells (human) (Q7KYR7 29-527 S72R, chain 1 of 2): as the sequence (Q7KYR7 29-527, chain 1 of 2) above, with S44R counted along it
Chain of BTN2A1 (Ser44-Arg) and BTN3A1 (WT) co-expressed on NIH-3T3 cells (human) (chain, as listed by the source S44R S44R, chain 2 of 2): as the sequence (chain, as listed by the source, chain 2 of 2) above

[9] = target: BTN2A1 (WT) and BTN3A1 (Glu106-Ala) co-expressed on NIH-3T3 cells (human) (UniProt Q7KYR7); test: flow cytometry on NIH-3T3 cells co-transfected with BTN2A1 WT and BTN3A1 Glu106-Ala, zoledronate (100 µM)
[10] = target: BTN2A1 (Ser44-Arg) and BTN3A1 (WT) co-expressed on NIH-3T3 cells (human) (UniProt Q7KYR7); test: flow cytometry on NIH-3T3 cells co-transfected with BTN2A1 Ser44-Arg and BTN3A1 WT, no zoledronate
[11] = target: BTN2A1 (Ser44-Arg) and BTN3A1 (Glu106-Ala) co-expressed on NIH-3T3 cells (human) (UniProt Q7KYR7); test: flow cytometry on NIH-3T3 cells co-transfected with BTN2A1 Ser44-Arg and BTN3A1 Glu106-Ala, no zoledronate
[12] = target: BTN2A1 (WT) and BTN3A1 (WT) co-expressed on NIH-3T3 cells (human) (UniProt Q7KYR7); test: flow cytometry on NIH-3T3 cells co-transfected with BTN2A1 WT and BTN3A1 WT, no zoledronate

Chain of full-length human BTN3A1 on transfected cells pre-treated (cross-linked) with anti-BTN3A mAb clone 20.1 (human) (O00481 30-513): as the sequence (chain, as listed by the source, chain 2 of 2) above

% cells in the FRET gate [1]: 34%
Kd [2]: 81 µM
B1: soluble G115 Vγ9Vδ2+ TCR Lys53δ-Ala (TCR, from a related filing)
TCR delta: AIELVPEHQTVPVSIGVPATLRCSMKGEAIGNYYINWYRKTQGNTMTFIYREADIYGPGFKDNFQGDIDIAKNLAVLKILAPSERDEGSYYCACDTLGMGGEYTDKLIFGKGTRVTVEPRSQPHTKPSVFVMKNGTNVACLVKEFYPKDIRINLVSSKKITEFDPAIVISPSGKYNAVKLGKYEDSNSVTCSVQHDNKTVHSTDFEVKTDSTDHVKPKETENTKQPSKSCHKPKAIVHTEK
TCR gamma: AGHLEQPQISSTKTLSKTARLECVVSGITISATSVYWYRERPGEVIQFLVSISYDGTVRKESGIPSGKFEVDRIPETSTSTLTIHNVEKQDIATYYCALWEAQQELGKKIKVFGPGTKLIITDKQLDADVSPKPTIFLPSIAETKLQKAGTYLCLLEKFFPDVIKIHWEEKKSNTILGSQEGNTMKTNDTYMKFSWLTVPEKSLDKEHRCIVRHENNKNGVDQEIIFPPIKTDVITMDPKDNCSKDANDTLLLQLTNTSA

mean fluorescence intensity of TCR tetramer (black gate) [3]: 1700
mean fluorescence intensity of TCR tetramer (black gate) [4]: 26600
mean fluorescence intensity of TCR tetramer (black gate) [5]: 7210
Kd [6]: 740 µM
MFI of PE (GFP+ gate) [7]: 33
mean fluorescence intensity of TCR tetramer (black gate) [8]: 28100
mean fluorescence intensity of TCR tetramer (black gate) [9]: 23300
mean fluorescence intensity of TCR tetramer (black gate) [10]: 10800
mean fluorescence intensity of TCR tetramer (black gate) [11]: 11300
mean fluorescence intensity of TCR tetramer (black gate) [12]: 635
B2: soluble G115 Vγ9Vδ2+ TCR His85γ-Ala (TCR, from a related filing, V domains shown)
V domain 1: AIELVPEHQTVPVSIGVPATLRCSMKGEAIGNYYINWYRKTQGNTMTFIYREKDIYGPGFKDNFQGDIDIAKNLAVLKILAPSERDEGSYYCACDTLGMGGEYTDKLIFGKGTRVTVEP
V domain 2: AGHLEQPQISSTKTLSKTARLECVVSGITISATSVYWYRERPGEVIQFLVSISYDGTVRKESGIPSGKFEVDRIPETSTSTLTIANVEKQDIATYYCALWEAQQELGKKIKVFGPGTKLIITD

MFI of PE (GFP+ gate) [7]: 38
B3: G115 Vγ9Vδ2+ TCR tetramer with combined His85γ-Ala and Glu52δ-Ala mutations (TCR, from a related filing, V domains shown)
V domain 1: B2 V domain 1 with E52A
V domain 2: B2 V domain 2

Kd [6]: 140 µM
MFI of PE (GFP+ gate) [7]: 32
Kd [2]: 93 µM
B4: soluble G115 Vγ9Vδ2+ TCR Glu52δ-Ala (TCR, from a related filing, V domains shown)
V domain 1: B2 V domain 1 with E52A
V domain 2: B2 V domain 2 with A85H

MFI of PE (GFP+ gate) [7]: 25
B5: G115 Vγ9Vδ2+ TCR tetramer Lys108γ-Ala (TCR, from a related filing, V domains shown)
V domain 1: B2 V domain 1
V domain 2: B2 V domain 2 with A85H, K108A
